From patent publication US20100255003A1 come the findings set out here.

Common to all, as to test: cell-based or functional assay
Experiment [1] has as its target Thrombospondin (TSP)-1 (human) (UniProt P07996).
A further experiment has as its target CD36 (human) (UniProt P16671).
Experiment [2] addresses CD51/alphaV integrin (human) (UniProt P06756).
UniProt P06756, sequence (P06756 31-1048): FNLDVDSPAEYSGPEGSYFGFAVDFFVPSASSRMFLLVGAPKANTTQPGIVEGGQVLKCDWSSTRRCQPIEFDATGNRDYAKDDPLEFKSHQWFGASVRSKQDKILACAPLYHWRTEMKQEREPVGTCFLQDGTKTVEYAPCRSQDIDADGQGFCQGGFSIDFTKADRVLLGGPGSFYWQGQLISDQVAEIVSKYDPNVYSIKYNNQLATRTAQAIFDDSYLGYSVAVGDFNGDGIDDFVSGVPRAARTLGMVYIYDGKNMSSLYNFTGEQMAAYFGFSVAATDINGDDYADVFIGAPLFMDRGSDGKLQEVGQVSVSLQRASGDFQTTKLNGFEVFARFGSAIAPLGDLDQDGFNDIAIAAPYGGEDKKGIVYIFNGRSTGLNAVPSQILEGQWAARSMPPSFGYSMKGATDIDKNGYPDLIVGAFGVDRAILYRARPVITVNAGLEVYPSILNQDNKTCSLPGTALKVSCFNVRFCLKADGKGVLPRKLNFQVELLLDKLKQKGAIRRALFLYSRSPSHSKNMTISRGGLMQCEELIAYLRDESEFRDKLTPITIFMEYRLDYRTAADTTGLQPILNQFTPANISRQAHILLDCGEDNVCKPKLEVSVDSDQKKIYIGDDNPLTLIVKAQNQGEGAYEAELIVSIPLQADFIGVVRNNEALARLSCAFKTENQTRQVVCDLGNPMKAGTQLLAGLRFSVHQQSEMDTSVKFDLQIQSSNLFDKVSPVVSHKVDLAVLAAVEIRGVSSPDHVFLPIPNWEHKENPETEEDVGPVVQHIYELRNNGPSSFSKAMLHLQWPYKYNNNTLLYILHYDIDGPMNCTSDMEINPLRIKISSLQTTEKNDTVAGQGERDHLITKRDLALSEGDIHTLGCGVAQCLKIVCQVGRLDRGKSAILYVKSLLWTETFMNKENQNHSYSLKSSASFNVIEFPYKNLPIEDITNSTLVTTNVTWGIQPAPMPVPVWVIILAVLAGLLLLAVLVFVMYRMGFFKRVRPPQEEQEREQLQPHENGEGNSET

UniProt P07996, sequence (P07996 19-1170 A84T limits assumed): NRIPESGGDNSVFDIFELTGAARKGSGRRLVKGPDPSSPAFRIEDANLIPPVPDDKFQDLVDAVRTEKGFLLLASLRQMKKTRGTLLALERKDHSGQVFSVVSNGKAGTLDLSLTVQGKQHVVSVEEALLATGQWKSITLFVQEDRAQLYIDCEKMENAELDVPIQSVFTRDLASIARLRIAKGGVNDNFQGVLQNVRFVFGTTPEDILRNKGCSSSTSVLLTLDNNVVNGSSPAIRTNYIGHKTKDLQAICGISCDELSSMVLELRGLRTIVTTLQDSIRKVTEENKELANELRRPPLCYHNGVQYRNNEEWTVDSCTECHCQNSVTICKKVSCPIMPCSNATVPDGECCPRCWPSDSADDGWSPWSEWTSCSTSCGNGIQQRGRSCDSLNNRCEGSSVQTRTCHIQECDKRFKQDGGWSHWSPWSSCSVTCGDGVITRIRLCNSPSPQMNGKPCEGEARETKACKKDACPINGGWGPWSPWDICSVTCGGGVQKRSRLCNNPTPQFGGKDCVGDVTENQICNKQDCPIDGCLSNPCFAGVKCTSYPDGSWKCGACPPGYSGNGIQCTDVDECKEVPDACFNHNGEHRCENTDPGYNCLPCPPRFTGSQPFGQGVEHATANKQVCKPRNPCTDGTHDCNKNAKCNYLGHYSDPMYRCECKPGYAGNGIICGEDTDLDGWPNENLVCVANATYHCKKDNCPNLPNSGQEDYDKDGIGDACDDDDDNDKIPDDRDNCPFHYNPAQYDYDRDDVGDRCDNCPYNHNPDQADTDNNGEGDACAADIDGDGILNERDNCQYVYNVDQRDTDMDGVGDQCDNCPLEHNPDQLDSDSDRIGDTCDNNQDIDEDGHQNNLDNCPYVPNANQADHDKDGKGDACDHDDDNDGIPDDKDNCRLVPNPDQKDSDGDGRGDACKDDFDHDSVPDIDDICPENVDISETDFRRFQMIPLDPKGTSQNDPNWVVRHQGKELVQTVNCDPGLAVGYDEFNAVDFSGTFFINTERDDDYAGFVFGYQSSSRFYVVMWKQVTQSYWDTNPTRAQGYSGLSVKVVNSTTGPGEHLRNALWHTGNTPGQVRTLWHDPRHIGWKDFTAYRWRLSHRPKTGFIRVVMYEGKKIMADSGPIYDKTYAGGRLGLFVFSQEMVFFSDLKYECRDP
UniProt P16671, sequence (P16671 2-472): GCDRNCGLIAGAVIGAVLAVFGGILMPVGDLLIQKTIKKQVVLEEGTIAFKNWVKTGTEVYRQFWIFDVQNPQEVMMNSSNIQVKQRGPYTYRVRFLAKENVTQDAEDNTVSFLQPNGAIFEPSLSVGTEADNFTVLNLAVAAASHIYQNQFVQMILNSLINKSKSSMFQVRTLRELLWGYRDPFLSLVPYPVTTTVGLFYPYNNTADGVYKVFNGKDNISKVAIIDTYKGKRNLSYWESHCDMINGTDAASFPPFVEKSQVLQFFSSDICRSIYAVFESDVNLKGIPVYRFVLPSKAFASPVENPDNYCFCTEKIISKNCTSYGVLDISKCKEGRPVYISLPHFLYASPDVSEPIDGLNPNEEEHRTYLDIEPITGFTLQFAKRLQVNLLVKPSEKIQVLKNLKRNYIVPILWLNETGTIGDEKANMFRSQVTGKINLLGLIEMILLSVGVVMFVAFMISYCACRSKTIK

Consider “azide-free polyclonal goat anti-human thrombospondin-1 N-terminus antibody N-20 (Santa Cruz Biotechnology, Cat No. sc-12312)”, for which the inhibition of apoptotic monocyte endocytosis by immature dendritic cells (percentage of thrombospondin-1-dependent endocytosis) in experiment [1] is 90 percent.
Turning to “mouse IgM anti-human CD36 monoclonal antibody (clone SMO; Serotec, Cat. No. MCA722XZ)”, in the experiment with CD36 (human), the inhibition of apoptotic monocyte endocytosis by immature dendritic cells (percentage of thrombospondin-1-dependent endocytosis) amounted to 64 percent.
Substance “mouse anti-CD51/integrin alphaV monoclonal antibody (clone AV1; Chemicon International, Cat. No. MAB2021Z)” registered an inhibition of apoptotic monocyte endocytosis by immature dendritic cells (percentage of thrombospondin-1-dependent endocytosis) in experiment [2] of 24 percent.
